Assay [1] has as its target T1, human CD3 (on the human CD3 positive T cell leukemia cell line HPB-ALL) (human, UniProt P07766 23-207).
T1 construct: whole, on cells; native CD3 complex on T cells; also called human CD3 epsilon
Nature of the assay: FACS on HPB-ALL.

Assay [2] has as its target human FAPalpha (on CHO cells) (human, UniProt Q12884 1-760). Nature of the assay: FACS on CHO cells.
For assay [3], the target named is macaque FAPalpha (on CHO cells) (macaque (Cynomolgus)). Nature of the assay: FACS on CHO cells.
macaque FAPalpha (on CHO cells) (macaque (Cynomolgus)), sequence (chain, as listed by the source): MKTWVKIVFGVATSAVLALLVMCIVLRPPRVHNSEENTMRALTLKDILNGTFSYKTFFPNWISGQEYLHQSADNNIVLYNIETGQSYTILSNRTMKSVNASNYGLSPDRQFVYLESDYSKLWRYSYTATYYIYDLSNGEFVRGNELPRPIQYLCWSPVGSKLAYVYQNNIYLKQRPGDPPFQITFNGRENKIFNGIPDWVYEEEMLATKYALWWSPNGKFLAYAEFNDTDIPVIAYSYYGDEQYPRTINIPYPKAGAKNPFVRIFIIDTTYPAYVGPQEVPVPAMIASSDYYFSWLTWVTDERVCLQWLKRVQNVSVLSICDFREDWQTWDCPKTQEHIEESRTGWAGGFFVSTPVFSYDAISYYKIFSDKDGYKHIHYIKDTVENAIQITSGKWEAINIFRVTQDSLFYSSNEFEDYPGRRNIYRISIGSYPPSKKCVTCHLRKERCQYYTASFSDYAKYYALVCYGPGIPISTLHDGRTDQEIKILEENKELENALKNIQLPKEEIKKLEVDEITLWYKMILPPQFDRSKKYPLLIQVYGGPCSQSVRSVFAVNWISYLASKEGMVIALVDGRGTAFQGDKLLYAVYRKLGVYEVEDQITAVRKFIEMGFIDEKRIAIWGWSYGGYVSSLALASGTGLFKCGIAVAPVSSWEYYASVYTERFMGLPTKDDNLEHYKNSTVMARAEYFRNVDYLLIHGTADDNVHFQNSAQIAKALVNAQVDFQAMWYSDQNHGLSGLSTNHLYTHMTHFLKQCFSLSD
Another assay concerns the target T2, 1-27 CD3-Fc (human).
T2 construct: aa 1-27 of mature human CD3 epsilon, hinge and Fc gamma of human IgG1, His6; also called human CD3 epsilon (aa 1-27)-Fc fusion protein; 27 aa huCD3E
Nature of the assay: ELISA on captured 1-27 CD3-Fc.

In assay [4] the target is T3, 1-27 CD3-EpCAM comprising the human 27 mer (human; cynomolgus).
T3 construct: on transfected cells
T3 chain: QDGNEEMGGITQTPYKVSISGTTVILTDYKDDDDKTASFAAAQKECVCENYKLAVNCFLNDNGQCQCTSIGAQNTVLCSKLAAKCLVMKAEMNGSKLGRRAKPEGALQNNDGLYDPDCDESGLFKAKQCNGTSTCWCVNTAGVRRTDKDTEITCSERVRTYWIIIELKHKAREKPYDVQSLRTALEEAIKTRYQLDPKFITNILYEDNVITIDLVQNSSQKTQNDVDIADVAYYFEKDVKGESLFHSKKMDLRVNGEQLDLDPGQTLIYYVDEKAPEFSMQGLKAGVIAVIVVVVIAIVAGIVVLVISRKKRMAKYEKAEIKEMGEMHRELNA
Nature of the assay: FACS on transfected 293-HEK cells.

The target of assay [5] is T4, 1-27 CD3-EpCAM comprising the marmoset 27 mer (Callithrix jacchus; cynomolgus).
T4 construct: on transfected cells
T4 chain: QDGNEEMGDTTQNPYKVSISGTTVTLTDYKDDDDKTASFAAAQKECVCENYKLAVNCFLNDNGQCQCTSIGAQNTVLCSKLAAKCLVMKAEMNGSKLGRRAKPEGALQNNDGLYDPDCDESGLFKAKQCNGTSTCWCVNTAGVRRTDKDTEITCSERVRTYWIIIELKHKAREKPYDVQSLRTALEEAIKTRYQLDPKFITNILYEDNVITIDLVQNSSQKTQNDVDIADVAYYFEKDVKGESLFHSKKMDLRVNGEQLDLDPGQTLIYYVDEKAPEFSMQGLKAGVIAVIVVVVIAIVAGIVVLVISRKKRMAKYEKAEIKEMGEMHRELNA
Nature of the assay: FACS on transfected 293-HEK cells.

Assay [6] concerns the target T5, 1-27 CD3-EpCAM comprising the squirrel monkey 27 mer (Saimiri sciureus; cynomolgus).
T5 construct: on transfected cells
T5 chain: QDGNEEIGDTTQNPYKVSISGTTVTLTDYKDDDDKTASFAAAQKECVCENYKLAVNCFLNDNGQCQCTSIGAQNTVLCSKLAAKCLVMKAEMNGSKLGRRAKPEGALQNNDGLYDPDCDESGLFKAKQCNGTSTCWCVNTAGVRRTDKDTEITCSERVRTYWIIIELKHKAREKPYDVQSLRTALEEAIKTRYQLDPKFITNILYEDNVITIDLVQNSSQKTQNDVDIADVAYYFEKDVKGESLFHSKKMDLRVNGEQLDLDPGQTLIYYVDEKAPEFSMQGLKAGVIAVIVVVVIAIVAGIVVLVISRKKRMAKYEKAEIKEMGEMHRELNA
Nature of the assay: FACS on transfected 293-HEK cells.

T1 sequence (P07766 23-207): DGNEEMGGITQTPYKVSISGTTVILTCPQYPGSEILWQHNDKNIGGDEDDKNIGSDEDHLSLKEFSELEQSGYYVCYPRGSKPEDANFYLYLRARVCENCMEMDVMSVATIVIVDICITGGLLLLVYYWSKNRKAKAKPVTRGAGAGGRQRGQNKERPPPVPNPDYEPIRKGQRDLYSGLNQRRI

B1: MCSP-G4 HLP x E2M HLP (bispecific antibody)
chain: QVQLVQSGAEVKRPGASMKVSCKASGYTFTNYYIHWVRQAPGQGLEWMGWINPNSGATNYAQKFQGRVTMTRDTSTSTVYMELSSLRSEDTAVYYCAKSWVSWFASWGQGTLVTVSSGGGGSGGGGSGGGGSELVMTQSPDSLAVSLGERATINCKSSQSVLNSSNNRNYLAWYQQKPGQPPKLLIYWASTRESGVPDRFSGSGSGTDFTLTISGLQAEDVAVYYCQQHYSTPFTFGPGTKVDIKSGGGGSEVQLLESGGGLVQPGGSLKLSCAASGFTFNGYAMNWVRQAPGKGLEWVARIRSKYNNYATYYADSVKERFTISRDDSKNTAYLQMNNLKTEDTAVYYCVRHRNFGNSYLSWFAYWGQGTLVTVSSGGGGSGGGGSGGGGSELVVTQEPSLTVSPGGTVTLTCRSSTGAVTSGYYPNWVQQKPGQAPRGLIGATDMRPSGTPARFSGSLLGGKAALTLSGVQPEDEAEYYCALWYSNRWVFGGGTKLTVL
notes: C-terminal His6 tag added
As for B1, the binding result in assay [1] was “binds”.

B2: 86D2HL (scFv)
scFv: EVQLLESGGGLVQPGGSLKLSCAASGFDFSTYWMSWVRQAPGKGLEWIGEINPDSSTINYTPSLKDKFIISRDNAKNTLYLQMNKVRSEDTALYYCAGGYYRYPYYYTMDYWGQGTTVTVSSGGGGSGGGGSGGGGSELVMTQSPASLSASVGETVTITCRASGNIHNYLAWYQQKQGKSPQLLVYNAKTLADGVPSRFSGSGSGTQYSLKINSLQPEDFGSYYCQHFWSTPYTFGGGTKLEIK
notes: periplasmic preparation
As to B2, the binding result in assay [2] and in assay [3] was “binds” each time.

B3: 86C12HL (scFv)
scFv: EVQLLESGGGLVQPGGSLKLSCAASGFDFSRSWMSWVRQAPGKGLEWIGEINPDSSTINYTPSLKDKFIISRDNAKNTLYLQMSKVRSEDTALYYCAGGYYRYPYYYTMDYWGQGTTVTVSSGGGGSGGGGSGGGGSELQMTQSPASLSASVGETVTITCRASGNIHNYLAWYQQKQGKSPQLLVYNAKTLADGVPSRFSGSGSGTQYSLKINSLQPEDFGSYYCQHFWSTPYTFGGGTKLEIK
notes: periplasmic preparation
With B3, the binding result in assay [2] and in assay [3] was “binds” in each case.

B4: 86F2HL (scFv)
scFv: EVQLLESGGGLVQPGGSLKLSCAASGFDFSTYWMSWVRQAPGKGLEWIGEINPDSSTVNYTPSLKDKFIISRDNAKNTLYLQMTKVRSEDTALYYCAGGYYRYPYYYTMDYWGQGTTVTVSSGGGGSGGGGSGGGGSELQMTQSPASLSASVGETVTITCRASGNIHNYLAWYQQKQGKSPQLLVYNAKTLADGVPSRFSGSGSGTQYSLKINSLQPEDFGSYYCQHFWSTPYTFGGGTKLEIK
notes: periplasmic preparation
B4: the binding result in assay [2] and in assay [3] was “binds” in each case.

B5: 87G9HL (scFv)
scFv: EVQLLESGGGLVQPGGSLKLSCAASGFDFSRYWMSWVRQAPGKGLEWIGEINPDSSTINYTPSLKDKFIISRDNAKNTLYLQMSKVRSEDTALYYCAGGYYRYPYYYTMDYWGQGTTVTVSSGGGGSGGGGSGGGGSELVMTQSPASLSASVGETVTITCRASGNIHNYLAWYQQKQGKSPQLLVYNAKTLADGVPSRFSGSGSGTQYSLKINSLQPEDFGSYYCQHFWSTPYTFGGGTKLEIK
notes: periplasmic preparation
For the molecule B5, the binding result in assay [2] and in assay [3] was “binds” each time.

B6: 86D6HL (scFv)
scFv: EVQLLESGGGLVQPGGSLKLSCAASGFDFSTYWMSWVRQAPGKGLEWIGEINPDSSTINYTPSLKDKFIISRDNAKNTLYLQMTKVRPEDTALYYCAGGYYRYPYYYTMDYWGQGTTVTVSSGGGGSGGGGSGGGGSELVMTQSPASLSASVGETVTITCRASGSIHNYLAWYQQKQGKSPQLLVYNAKTLADGVPSRFSGSGSGTQYSLKINSLQPEDFGSYYCQHFWSTPYTFGGGTKLEIK
notes: periplasmic preparation
As for B6, the binding result in assay [2] and in assay [3] was “binds” each time.

B7: 86F12HL (scFv)
scFv: EVQLLESGGGLVQPGGSLNLSCAASGFDFSTYWMSWVRQAPGKGLEWIGEINPDSSTINYTPSLKDKFIISRDNAKNTLYLQMNKVRSDDTALYYCAGGYYRYPYYYTMDYWGQGTTVTVSSGGGGSGGGGSGGGGSELQMTQSPASLSASVGETVTITCRASGNIHNYLAWYQQKQGKSPQLLVYNAKTLADGVPSRFSGSGSGTQYSLKINSLQPEDFGSYYCQHFWSTPYTFGGGTKLEIK
notes: periplasmic preparation
Take B7: the binding result in assay [2] and in assay [3] was “binds” throughout.

B8: 86F10HL (scFv)
scFv: EVQLLESGGGLVQPGGSLKLSCAASGFDFSTYWMSWVRQAPGKGLEWIGEINPDSSTINYTPSLKDKFIISRDNAKNTLYLQMNKVRSDDTALYYCAGGYYRYPYYYTMDYWGQGTTVTVSSGGGGSGGGGSGGGGSELVMTQSPSSLSASVGETVTITCRASGNIHNYLAWYQQKQGKSPQLLVYNAKTLADGVPSRFSGSGSGTQYSLKINSLQPEDFGSYYCQHFWSTPYTFGGGTKLEIK
notes: periplasmic preparation
As to B8, the binding result in assay [2] and in assay [3] was “binds” throughout.

B9: 86E5HL (scFv)
scFv: EVQLLESGGGLVQPGGSLKLSCAASGFDFSRSWMSWVRQAPGKGLEWIGEINPDSSTINYTPSLKDKFIISRDNAKNTLYLQMSKVRSEDTALYYCAGGYYRYPYYYTMDYWGQGTTVTVSSGGGGSGGGGSGGGGSELQMTQSPASLSASVGETVTITCRASENIYSYLAWYQQKQGKSPQLLVYNAKTLAEGVPSRFSGSGSRTQYSLKINSLQPEDFGSYYCQHFWSTPYTFGGGTKLEIK
notes: periplasmic preparation
Regarding B9, the binding result in assay [2] and in assay [3] was “binds” in each case.

B10: A2J HLP (scFv)
scFv: EVQLLESGGGLVQPGGSLKLSCAASGFTFNVYAMNWVRQAPGKGLEWVARIRSKYNNYATYYADSVKKRFTISRDDSKNTAYLQMNNLKTEDTAVYYCVRHGNFGNSYLSWWAYWGQGTLVTVSSGGGGSGGGGSGGGGSELVVTQEPSLTVSPGGTVTLTCRSSTGAVTSGYYPNWVQQKPGQAPRGLIGATDMRPSGTPARFSGSLLGGKAALTLSGVQPEDEAEYYCALWYSNRWVFGGGTKLTVL
notes: crude periplasmic preparation, Flag and His6 tags
Regarding B10, the binding result with 1-27 CD3-Fc is reported as “binds”.

B11: E2M HLP (scFv)
scFv: EVQLLESGGGLVQPGGSLKLSCAASGFTFNGYAMNWVRQAPGKGLEWVARIRSKYNNYATYYADSVKERFTISRDDSKNTAYLQMNNLKTEDTAVYYCVRHRNFGNSYLSWFAYWGQGTLVTVSSGGGGSGGGGSGGGGSELVVTQEPSLTVSPGGTVTLTCRSSTGAVTSGYYPNWVQQKPGQAPRGLIGATDMRPSGTPARFSGSLLGGKAALTLSGVQPEDEAEYYCALWYSNRWVFGGGTKLTVL
notes: as for B10
B11: the binding result (in the assay with 1-27 CD3-Fc; in assay [4]; in assay [5]; in assay [6]) was “binds” in each case.

For the origin of these results see patent US20120034228A1 (MICROMET, published 2012).
